Measured values taken from the RNAGym collection of RNA variant scans (doi:10.7554/elife.90254).

B1: LINE1-full (parent)
chain: UACGUAGGUGGUUUUCCCCUGAUAGUGCUAAGGGGGCCUGGAAGUUUGGACUGGGCAGAGCUCAACACAGCGUGGCAAAGUGGCUGUGGCUAGACUGCCUCUCUGGAUUCCUCGUCACUCAGCAGGGCAUCUCUGAGAGAAAUGCC

Variants of: B1
Assay: self-cleavage, relative activity (ratio to wild type); higher = more cleavage; in vitro, sequencing; the parent is a self-cleaving ribozyme

| Variant | self-cleavage |
| --- | --- |
| U81A A136G | 1.9 |
| A50G A94G | 0.32 |
| A69G A121G | 0.6 |
| U119G A138G | 2.33 |
| A59G C84A | 0.04 |
| C63U C90U | 0 |
| U96A A136G | 0.09 |
| G33A | 1.14 |
| U12A U134C | 0.73 |
| U102A U119C | 2.01 |
| A6C A141G | 1.71 |
| U119C A121U | 1.48 |
| U87C A92G | 0.1 |
| C37A G40U | 1.04 |
| C98U A138G | 1.15 |
| U52G U96C | 0.55 |
| U104A A138G | 1.34 |
| G55U A59G | 0.05 |
| U73A U132G | 2.06 |
| A42C A117G | 0.77 |
| A2G G54A | 0.27 |
| U20A U109A | 0.88 |
| A22G G70A | 0.18 |
| C37A U39C | 1.35 |

| Variant | self-cleavage |
| --- | --- |
| G21U G127A | 1.99 |
| U91C U119C | 1.4 |
| U130A A136G | 1.46 |
| U91C C123U | 0.8 |
| G83C A117G | 0.76 |
| C101U U119C | 1.65 |
| U29A G54A | 0.75 |
| U23C U81A | 1.85 |
| U46A A67U | 0.1 |
| U87C G114U | 0.19 |
| G55U U115A | 0.14 |
| A65U A141G | 0.18 |
| A50U U81A | 1.1 |
| U47G A136U | 1.53 |
| U15C U87A | 0.1 |
| A121U A142G | 1.4 |
| G36A A141G | 1.38 |
| U81G A136G | 1.65 |
| U15A A78G | 0.99 |
| A43G U45C | 1.1 |
| U62C A136G | 0.06 |
| A6G U47A | 0.91 |
| C28U A43C | 1.2 |
| G40U A65G | 0.04 |

| Variant | self-cleavage |
| --- | --- |
| U108A U132G | 2.7 |
| C113G C123U | 1.01 |
| U62G A141G | 0.08 |
| U85C U134C | 0.26 |
| U14C U47G | 1.4 |
| U112C A138U | 1.23 |
| G126U A129G | 1.61 |
| A43U A138U | 1.14 |
| A30G U109A | 1.38 |
| A30G U109C | 1.71 |
| A67U U143C | 0.2 |
| A50G U81C | 0.7 |
| U9A G93U | 0.3 |
| G4C U112C | 1.42 |
| G44C U45C | 1.02 |
| A64G U108A | 0.12 |
| A69G U109A | 0.43 |
| A92U U143C | 0.99 |
| U62C G126A | 0.04 |
| A121C G127A | 1.8 |
| A24G C120U | 1.29 |
| A94G C146U | 0.47 |
| U13A U143A | 0.84 |
| U85G A141G | 0.1 |

| Variant | self-cleavage |
| --- | --- |
| A65G U100A | 0.09 |
| U91C U96C | 0.13 |
| C3U U20A | 0.83 |
| U26C U132C | 1.62 |
| A31C U39C | 1.19 |
| U91C A117U | 0.92 |
| U20A U87A | 0.11 |
| U52C U87C | 0.11 |
| U5A U39A | 0.8 |
| U62C A140G | 0.04 |
| G35A | 1.1 |
| G54C A117U | 1.23 |
| A42U A69C | 0.02 |
| U132A U143A | 2 |
| A57G U102A | 0.82 |
| U12C G74A | 1 |
| G4C A140G | 1.19 |
| U52C U102C | 1.14 |
| U29C A124C | 1.23 |
| U109G C145A | 0.34 |
| A2U U73A | 0.45 |
| A50G A129U | 0.26 |
| A64G A79U | 0.34 |
| G21A | 1.14 |

| Variant | self-cleavage |
| --- | --- |
| U1C A77C | 1.02 |
| U5A U46A | 0.82 |
| C95G U104C | 0.02 |
| A31G G82A | 2.09 |
| G60A G139U | 0.03 |
| A31G U47C | 0.79 |
| G114A A117G | 1.27 |
| A78G C113U | 0.93 |
| U23A U132C | 0.33 |
| G86A A142G | 0.06 |
| A59G U130A | 0.1 |
| G54C U81A | 0.4 |
| A77C U115A | 1.28 |
| A107G U132A | 0.88 |
| C146A | 1.45 |
| G4C U115A | 1.51 |
| U47A G106A | 1.3 |
| G53A U115A | 1.31 |
| G58U A124C | 0.03 |
| G11U A79U | 1.75 |
| A78G G86U | 0.08 |
| U14C A121C | 1.13 |
| A42G U112A | 2.01 |
| C95A A142G | 0.08 |

| Variant | self-cleavage |
| --- | --- |
| G25A A30U | 0.7 |
| G55C A117C | 0.42 |
| G10C U13C | 0.94 |
| A77U U130A | 1.01 |
| U73C C133U | 1.97 |
| U15A A57G | 0.68 |
| U9A G89A | 0.1 |
| C38G U39G | 1.28 |
| G93A U119A | 0.03 |
| U26A C99U | 0.37 |
| U45C C131A | 1.67 |
| U102A C131U | 1.26 |
| U29C U81C | 1.27 |
| U102G | 0.71 |
| A42G A140G | 1.46 |
| G60A C113U | 0 |
| A77G G106A | 2 |
| U85A U134C | 0.13 |
| U20C A30G | 1.39 |
| U47A C118A | 0.95 |
| G41U A117U | 1.24 |
| C38A A142G | 0.64 |
| C76U A140G | 2.36 |
| U26G U130A | 0.79 |

| Variant | self-cleavage |
| --- | --- |
| U52C C116U | 1.39 |
| U20A C131U | 1.36 |
| A22G U26A | 1.4 |
| A22G U130C | 1.3 |
| U73G A140G | 1.21 |
| A57G A107U | 0.92 |
| U23C G127C | 1.12 |
| G49A U73C | 2.51 |
| A50U U109A | 0.78 |
| U1C U134C | 0.38 |
| C118U U143A | 1.31 |
| U1C U96C | 0.12 |
| C28U U143G | 1.02 |
| A79G U87A | 0.06 |
| U26C U73C | 1.45 |
| A107G G137U | 2.3 |
| G4A A67G | 0.62 |
| A92G A117G | 0 |
| U47C G127C | 1.23 |
| G10U | 1.26 |
| U20A U45A | 1.05 |
| G54U C84U | 0.07 |
| A6U U87G | 0.12 |
